Measured values as given in PMC6822988, “Native adiponectin in serum binds to mammalian cells expressing T-cadherin, but not AdipoRs or calreticulin” (eLife, 2019).

Columns and labels:
[1] = molecular target: adiponectin (HMW) (Homo sapiens) (UniProt Q15848); conditions: cited from earlier work
[2] = molecular target: the molecule itself; experiment: native gel or EMSA; native-PAGE of purified or recombinant adiponectin, 50 ng adiponectin, Western blot
[3] = molecular target: the molecule itself; experiment: native gel or EMSA; native-PAGE of mouse serum, 50 ng adiponectin, Western blot

Chain of adiponectin (HMW) (Homo sapiens) (Q15848 19-244): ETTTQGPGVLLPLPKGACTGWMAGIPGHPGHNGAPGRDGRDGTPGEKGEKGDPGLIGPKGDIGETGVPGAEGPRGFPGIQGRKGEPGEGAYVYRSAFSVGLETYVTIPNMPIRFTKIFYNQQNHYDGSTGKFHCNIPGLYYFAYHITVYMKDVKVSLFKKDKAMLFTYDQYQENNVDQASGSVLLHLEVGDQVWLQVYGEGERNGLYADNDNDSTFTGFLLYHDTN

Q: For T-cadherin (from UniProt P55290), which Kd [1] is on record?
A: The Kd was 1 nM.

B1: Full-length mammalian recombinant mouse adiponectin (ligand, UniProt Q60994 18-247, looked up)
chain: EDDVTTTEELAPALVPPPKGTCAGWMAGIPGHPGHNGTPGRDGRDGTPGEKGEKGDAGLLGPKGETGDVGMTGAEGPRGFPGTPGRKGEPGEAAYVYRSAFSVGLETRVTVPNVPIRFTKIFYNQQNHYDGSTGKFYCNIPGLYYFSYHITVYMKDVKVSLFKKDKAVLFTYDQYQEKNVDQASGSVLLHLEVGDQVWLQVYGDGDHNGLYADNVNDSTFTGFLLYHDTN
notes: adiponectin, mouse, full-length recombinant, produced in HEK293 cells; contains less 6-mer and HMW multimer than serum adiponectin; the secreted product probably lacks the signal peptide; also called recombinant adiponectin; full-length recombinant adiponectin produced in HEK293 cells; source: bought: BioVendor (RD272023100), produced in HEK293 cells
Q: Does B1 bind [2]?
A: Result: binds

B2: native mouse adiponectin in mouse serum (ligand, UniProt Q60994 18-247, looked up)
chain: B1 chain
notes: adiponectin, mouse, circulating protein of serum; multimers (6-mer and HMW multimer) seen by native-PAGE; Used both as whole serum and as adiponectin purified from serum; Mixture of multimers; also called mouse serum adiponectin; native adiponectin; source: endogenous, serum of C57BL6J mice, used as serum without processing; also purified from mouse serum (Fukuda et al., 2017)
Q: Does B2 bind [3]?
A: Result: binds
